# In US20180224449A1 (GOVERNMENT OF THE UNITED STATES AS REPRESENTED BY THE …, published 2018):
# Ends that are not written are not given here. * marks the point of attachment. Biotin = O=C1N[C@H]2[C@H](CS[C@H]2CCCCC(=O)*)N1
# What was measured:
# [1] = molecular target: T1, biotinylated OprF1 synthetic peptide (P. aeruginosa); experiment: pooled monoclonal phages pulled down on biotinylated OprF1 in Bushnell-Haas with 1% Jet-A; unamplified eluate, share of 30 sequenced clones
# T1 construct: also called OprF1-B; OprF1-Biotin
# T1 peptide: Biotin-GTYETGNKKVH
# [2] = molecular target: T2, OprF outer membrane protein on P. stutzeri cells (P. stutzeri); experiment: fluorometry of cells recovered from spiked 1 L Jet A fuel and labeled with 1.5 uM peptide-QD545, at the LOD of 5 x 10^5 CFU
# T2 construct: whole, on cells; whole bacterial cells were labeled
# [3] = molecular target: T3, OprF outer membrane protein on A. venetianus cells (A. venetianus); experiment: as above
# T3 construct: whole, on cells; Whole bacterial cells were labeled
Binder,% Abundance [1] [%],FLUORESCENCE (RFU) [2] [RFU],FLUORESCENCE (RFU) [3] [RFU]
NMTNPPP (also called OprF-specific bacteriophage; not shown: P3 coat protein of M13 bacteriophage (Ph.D.-7 library)) [monoclonal M13 phage displaying OBP6 (NMTNPPP)],10,–,–
RRSNSQL (also called OprF-specific bacteriophage; not shown: P3 coat protein of M13 bacteriophage (Ph.D.-7 library)) [monoclonal M13 phage displaying OBP4 (RRSNSQL)],33,–,–
QITLRST (also called OprF-specific bacteriophage; not shown: P3 coat protein of M13 bacteriophage (Ph.D.-7 library)) [monoclonal M13 phage displaying OBP7 (QITLRST)],10,–,–
"PIKTNRK (also: conjugated to quantum dot, The summary and claims describe a C-terminal three-glycine plus cysteine linker to an amine-functionalized quantum dot; also called QD545-OBP11; OBP11-QD545) [OBP11 peptide-quantum dot conjugate]",–,255,292
"PKRTPRH (also: conjugated to quantum dot, The summary and claims describe a C-terminal three-glycine plus cysteine linker to an amine-functionalized quantum dot; also called QD545-OBP12; OBP12-QD545) [OBP12 peptide-quantum dot conjugate]",–,12200,580
PIKTNRK (also called OprF-specific bacteriophage; not shown: P3 coat protein of M13 bacteriophage (Ph.D.-7 library)) [monoclonal M13 phage displaying OBP11 (PIKTNRK)],10,–,–
PKRTPRH (also called OprF-specific bacteriophage; not shown: P3 coat protein of M13 bacteriophage (Ph.D.-7 library)) [monoclonal M13 phage displaying OBP12 (PKRTPRH)],3,–,–
QMLLRLP (also called OprF-specific bacteriophage; not shown: P3 coat protein of M13 bacteriophage (Ph.D.-7 library)) [monoclonal M13 phage displaying OBP9 (QMLLRLP)],3,–,–
